Measurements reported in publication doi:10.1101/2021.02.22.432310, “Tetrameric UvrD helicase is located at the E. coli replisome due to frequent replication blocks” (bioRxiv, 2021).

Target: T1, Biotinylated UvrD (E. coli, UniProt P03018 1-720, biotin)
T1 construct: UvrD helicase (DNA helicase II), E. coli; also called E. coli UvrD
T1 sequence (looked up): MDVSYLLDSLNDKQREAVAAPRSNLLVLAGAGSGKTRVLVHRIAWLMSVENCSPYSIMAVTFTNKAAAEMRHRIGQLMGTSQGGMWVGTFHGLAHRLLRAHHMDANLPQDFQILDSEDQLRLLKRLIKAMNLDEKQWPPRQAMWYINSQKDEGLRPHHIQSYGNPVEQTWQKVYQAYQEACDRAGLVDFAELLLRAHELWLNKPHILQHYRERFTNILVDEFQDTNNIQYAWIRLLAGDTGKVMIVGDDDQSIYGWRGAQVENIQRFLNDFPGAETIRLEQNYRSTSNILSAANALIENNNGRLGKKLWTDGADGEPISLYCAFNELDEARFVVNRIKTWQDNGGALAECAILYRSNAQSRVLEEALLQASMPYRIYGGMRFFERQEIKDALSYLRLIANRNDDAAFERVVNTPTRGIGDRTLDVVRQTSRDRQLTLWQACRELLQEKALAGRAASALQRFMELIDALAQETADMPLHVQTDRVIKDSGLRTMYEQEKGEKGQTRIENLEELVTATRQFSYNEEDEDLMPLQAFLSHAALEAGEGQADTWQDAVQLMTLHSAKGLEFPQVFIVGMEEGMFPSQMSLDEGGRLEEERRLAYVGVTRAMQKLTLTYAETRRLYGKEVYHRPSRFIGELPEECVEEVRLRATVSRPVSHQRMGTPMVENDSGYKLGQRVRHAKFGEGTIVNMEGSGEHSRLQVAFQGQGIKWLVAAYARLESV
Test: SPR; BIAcore T200, 25°C; biotinylated UvrD or Rep immobilised on streptavidin-coated SA chips; Tau or UvrB passed over, ca. 200-4000 nM, 20 µl/min; 10 mM HEPES pH 7.4, 3 mM EDTA, 150 mM NaCl, 10 mM MgCl2, 0.05% Tween 20; single sites binding model
Details: both partners purified

- Kd: 231 nM
B1: UvrB (natural protein, UniProt P0A8F8 1-673, looked up)
chain: MSKPFKLNSAFKPSGDQPEAIRRLEEGLEDGLAHQTLLGVTGSGKTFTIANVIADLQRPTMVLAPNKTLAAQLYGEMKEFFPENAVEYFVSYYDYYQPEAYVPSSDTFIEKDASVNEHIEQMRLSATKAMLERRDVVVVASVSAIYGLGDPDLYLKMMLHLTVGMIIDQRAILRRLAELQYARNDQAFQRGTFRVRGEVIDIFPAESDDIALRVELFDEEVERLSLFDPLTGQIVSTIPRFTIYPKTHYVTPRERIVQAMEEIKEELAARRKVLLENNKLLEEQRLTQRTQFDLEMMNELGYCSGIENYSRFLSGRGPGEPPPTLFDYLPADGLLVVDESHVTIPQIGGMYRGDRARKETLVEYGFRLPSALDNRPLKFEEFEALAPQTIYVSATPGNYELEKSGGDVVDQVVRPTGLLDPIIEVRPVATQVDDLLSEIRQRAAINERVLVTTLTKRMAEDLTEYLEEHGERVRYLHSDIDTVERMEIIRDLRLGEFDVLVGINLLREGLDMPEVSLVAILDADKEGFLRSERSLIQTIGRAARNVNGKAILYGDKITPSMAKAIGETERRREKQQKYNEEHGITPQGLNKKVVDILALGQNIAKTKAKGRGKSRPIVEPDNVPMDMSPKALQQKIHELEGLMMQHAQNLEFEEAAQIRDQLHQLRELFIAAS
